Experimental data reported in paper PMC4498383.

Biological target: apolipoprotein E on the surface of very low-density lipoproteins (human) (UniProt P02649)
Assay: AFM-based force spectroscopy; DENV C covalently attached to the AFM tip; VLDL adsorbed on freshly cleaved mica; TEE-KCl buffer pH 7.4 (20 mM Tris-HCl, 100 mM KCl, 1 mM EDTA, 1 mM EGTA); loading rate 4 nN/s; with or without rabbit anti-human APOE antibody (1 or 100 ug/L) or an isotype-matched control antibody

UniProt P02649, sequence (P02649 19-317): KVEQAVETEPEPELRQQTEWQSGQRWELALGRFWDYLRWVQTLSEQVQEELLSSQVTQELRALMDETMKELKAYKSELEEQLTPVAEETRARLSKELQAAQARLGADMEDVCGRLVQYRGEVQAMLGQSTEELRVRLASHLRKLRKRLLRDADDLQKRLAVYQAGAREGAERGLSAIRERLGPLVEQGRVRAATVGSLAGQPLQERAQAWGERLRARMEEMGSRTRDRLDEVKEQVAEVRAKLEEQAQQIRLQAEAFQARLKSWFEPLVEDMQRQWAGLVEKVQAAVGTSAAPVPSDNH

## Dengue virus capsid (C) protein (natural protein)
  rupture force, 1st Gaussian peak (DENV C-VLDL, no antibody): 29.7 pN
  rupture force, 2nd Gaussian peak (DENV C-VLDL, no antibody): 52.1 pN
